Measurements as given in patent US20260167699A1 (Chugai, published 2026).

T1: FcγRIIa(H) extracellular domain, C-terminal His tag (human, UniProt P12318 34-217)
T1 construct: extracellular domain; also called 2aH
T1 sequence: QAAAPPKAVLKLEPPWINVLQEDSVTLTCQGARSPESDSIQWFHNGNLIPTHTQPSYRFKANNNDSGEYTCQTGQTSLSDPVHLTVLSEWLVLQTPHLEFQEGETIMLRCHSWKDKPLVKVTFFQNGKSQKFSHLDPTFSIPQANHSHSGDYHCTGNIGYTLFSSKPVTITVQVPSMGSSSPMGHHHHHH

T2: FcγRIIb extracellular domain, C-terminal His tag (human, UniProt P31994 43-217)
T2 construct: extracellular domain; also called 2b
T2 sequence: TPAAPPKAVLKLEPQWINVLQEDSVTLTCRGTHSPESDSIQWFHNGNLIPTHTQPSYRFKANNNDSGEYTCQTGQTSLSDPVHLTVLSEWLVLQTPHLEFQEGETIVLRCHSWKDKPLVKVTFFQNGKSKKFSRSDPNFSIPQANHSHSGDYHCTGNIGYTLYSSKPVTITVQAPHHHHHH

T3: FcγRIIa(R) extracellular domain, C-terminal His tag (human, UniProt P12318 34-217)
T3 construct: extracellular domain; also called 2aR
T3 sequence: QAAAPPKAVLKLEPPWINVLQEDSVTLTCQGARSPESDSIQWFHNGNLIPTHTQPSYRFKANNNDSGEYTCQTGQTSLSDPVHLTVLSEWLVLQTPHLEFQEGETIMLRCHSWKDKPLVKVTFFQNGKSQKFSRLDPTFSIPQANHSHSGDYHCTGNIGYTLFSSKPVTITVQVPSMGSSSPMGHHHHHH


Key:
Test in all cases: SPR; He Ab vs HeCon Ab (GpH7-A5/GpH7-B3/GpL16-k0)=100;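 note: surface plasmon resonance at 25 °C with the test antibody captured on a sensor chip via antigenic peptide, protein L or protein A/G and FcγR flowed over as analyte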
[1] = target: T4, FcγRIa extracellular domain, C-terminal His tag (human, UniProt P12314 16-292)
T4 construct: extracellular domain; also called 1a

[2] = target: T5, FcγRIIIa extracellular domain, C-terminal His tag (human, UniProt P08637 17-208)
T5 construct: extracellular domain; also called 3a

[3] = target: T1, FcγRIIa(H) extracellular domain, …
[4] = target: T2, FcγRIIb extracellular domain, …
[5] = target: T3, FcγRIIa(R) extracellular domain, …

T5 sequence (P08637 other isoform, or with tags, fused parts or gaps): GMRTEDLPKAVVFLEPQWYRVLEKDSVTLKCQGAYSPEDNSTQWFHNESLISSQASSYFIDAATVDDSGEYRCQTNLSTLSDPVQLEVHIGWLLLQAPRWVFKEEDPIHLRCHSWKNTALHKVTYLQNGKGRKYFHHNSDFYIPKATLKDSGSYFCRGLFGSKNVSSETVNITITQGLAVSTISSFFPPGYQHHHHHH
T4 sequence (P12314 other isoform, or with tags, fused parts or gaps): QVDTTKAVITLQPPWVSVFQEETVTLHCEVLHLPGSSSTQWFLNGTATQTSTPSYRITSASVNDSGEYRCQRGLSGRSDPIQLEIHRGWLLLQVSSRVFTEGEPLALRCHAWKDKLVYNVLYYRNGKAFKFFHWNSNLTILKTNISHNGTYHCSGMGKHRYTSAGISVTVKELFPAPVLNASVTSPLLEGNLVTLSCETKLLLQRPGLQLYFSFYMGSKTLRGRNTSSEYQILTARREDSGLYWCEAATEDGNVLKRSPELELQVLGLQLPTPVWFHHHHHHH

Row | Binder | He/Con 1a [1] [%] | He/Con 3a [2] [%] | He/Con 2aH [3] [%] | He/Con 2b [4] [%] | He/Con 2aR [5] [%]
1 | GpH7-A5/GpH7-B3 variant Y296_09D/GpL16-k0 (antibody, human IgG1, kappa, heterodimerized IgG1, one H chain mutated; also called He Ab; copies: 1 + 1 + 2) heavy 1: not shown heavy 2: not shown light: DIVMTQSPLSLPVTPGEPASISCQASESLVHSNRNTYLHWYLQKPGQSPQLLIYKVSNRFSGVPDRFSGSGSGTDFTLKISRVEAEDVGVYYCSQNTHVPPTFGQGTKVEIERTVAAPSVFIFPPSDEQLKSGTASVVCLLNNFYPREAKVQWKVDNALQSGNSQESVTEQDSKDSTYSLSSTLTLSKADYEKHKVYACEVTHQGLSSPVTKSFNRGEC | 103 | 89 | 102 | 100 | 101
2 | GpH7-A5/GpH7-B3 variant Y296_11K/GpL16-k0 (antibody, human IgG1, kappa, heterodimerized IgG1, one H chain mutated; also called He Ab; copies: 1 + 1 + 2) heavy 1: not shown heavy 2: not shown light: DIVMTQSPLSLPVTPGEPASISCQASESLVHSNRNTYLHWYLQKPGQSPQLLIYKVSNRFSGVPDRFSGSGSGTDFTLKISRVEAEDVGVYYCSQNTHVPPTFGQGTKVEIERTVAAPSVFIFPPSDEQLKSGTASVVCLLNNFYPREAKVQWKVDNALQSGNSQESVTEQDSKDSTYSLSSTLTLSKADYEKHKVYACEVTHQGLSSPVTKSFNRGEC | 102 | 53.3 | 83.7 | 73.8 | 90.3
3 | GpH7-A5/GpH7-B3 variant Y296_10E/GpL16-k0 (antibody, human IgG1, kappa, heterodimerized IgG1, one H chain mutated; also called He Ab; copies: 1 + 1 + 2) heavy 1: not shown heavy 2: not shown light: DIVMTQSPLSLPVTPGEPASISCQASESLVHSNRNTYLHWYLQKPGQSPQLLIYKVSNRFSGVPDRFSGSGSGTDFTLKISRVEAEDVGVYYCSQNTHVPPTFGQGTKVEIERTVAAPSVFIFPPSDEQLKSGTASVVCLLNNFYPREAKVQWKVDNALQSGNSQESVTEQDSKDSTYSLSSTLTLSKADYEKHKVYACEVTHQGLSSPVTKSFNRGEC | 102 | 76.8 | 94 | 99.4 | 98.2
4 | GpH7-A5/GpH7-B3 variant Y296_14T/GpL16-k0 (antibody, human IgG1, kappa, heterodimerized IgG1, one H chain mutated; also called He Ab; copies: 1 + 1 + 2) heavy 1: not shown heavy 2: not shown light: DIVMTQSPLSLPVTPGEPASISCQASESLVHSNRNTYLHWYLQKPGQSPQLLIYKVSNRFSGVPDRFSGSGSGTDFTLKISRVEAEDVGVYYCSQNTHVPPTFGQGTKVEIERTVAAPSVFIFPPSDEQLKSGTASVVCLLNNFYPREAKVQWKVDNALQSGNSQESVTEQDSKDSTYSLSSTLTLSKADYEKHKVYACEVTHQGLSSPVTKSFNRGEC | 102 | 60.7 | 97.2 | 89.4 | 98.6
5 | GpH7-A5/GpH7-B3 variant Y296_16H/GpL16-k0 (antibody, human IgG1, kappa, heterodimerized IgG1, one H chain mutated; also called He Ab; copies: 1 + 1 + 2) heavy 1: not shown heavy 2: not shown light: DIVMTQSPLSLPVTPGEPASISCQASESLVHSNRNTYLHWYLQKPGQSPQLLIYKVSNRFSGVPDRFSGSGSGTDFTLKISRVEAEDVGVYYCSQNTHVPPTFGQGTKVEIERTVAAPSVFIFPPSDEQLKSGTASVVCLLNNFYPREAKVQWKVDNALQSGNSQESVTEQDSKDSTYSLSSTLTLSKADYEKHKVYACEVTHQGLSSPVTKSFNRGEC | 103 | 69.1 | 101 | 93.5 | 100
6 | GpH7-A5/GpH7-B3 variant Y296_12R/GpL16-k0 (antibody, human IgG1, kappa, heterodimerized IgG1, one H chain mutated; also called He Ab; copies: 1 + 1 + 2) heavy 1: not shown heavy 2: not shown light: DIVMTQSPLSLPVTPGEPASISCQASESLVHSNRNTYLHWYLQKPGQSPQLLIYKVSNRFSGVPDRFSGSGSGTDFTLKISRVEAEDVGVYYCSQNTHVPPTFGQGTKVEIERTVAAPSVFIFPPSDEQLKSGTASVVCLLNNFYPREAKVQWKVDNALQSGNSQESVTEQDSKDSTYSLSSTLTLSKADYEKHKVYACEVTHQGLSSPVTKSFNRGEC | 103 | 66.5 | 89.1 | 80.5 | 95.3
7 | GpH7-A5/GpH7-B3 variant Y296_13S/GpL16-k0 (antibody, human IgG1, kappa, heterodimerized IgG1, one H chain mutated; also called He Ab; copies: 1 + 1 + 2) heavy 1: not shown heavy 2: not shown light: DIVMTQSPLSLPVTPGEPASISCQASESLVHSNRNTYLHWYLQKPGQSPQLLIYKVSNRFSGVPDRFSGSGSGTDFTLKISRVEAEDVGVYYCSQNTHVPPTFGQGTKVEIERTVAAPSVFIFPPSDEQLKSGTASVVCLLNNFYPREAKVQWKVDNALQSGNSQESVTEQDSKDSTYSLSSTLTLSKADYEKHKVYACEVTHQGLSSPVTKSFNRGEC | 102 | 58.1 | 96.1 | 87.5 | 97.5

Next, values leading:

Row | He/Con 1a [1] [%] | He/Con 3a [2] [%] | He/Con 2aH [3] [%] | He/Con 2b [4] [%] | He/Con 2aR [5] [%] | Binder
8 | 102 | 100 | 103 | 106 | 103 | GpH7-A5/GpH7-B3 variant Y300_04F/GpL16-k0 (antibody, human IgG1, kappa, heterodimerized IgG1, one H chain mutated; also called He Ab; copies: 1 + 1 + 2) heavy 1: not shown heavy 2: not shown light: DIVMTQSPLSLPVTPGEPASISCQASESLVHSNRNTYLHWYLQKPGQSPQLLIYKVSNRFSGVPDRFSGSGSGTDFTLKISRVEAEDVGVYYCSQNTHVPPTFGQGTKVEIERTVAAPSVFIFPPSDEQLKSGTASVVCLLNNFYPREAKVQWKVDNALQSGNSQESVTEQDSKDSTYSLSSTLTLSKADYEKHKVYACEVTHQGLSSPVTKSFNRGEC
9 | 102 | 67.9 | 101 | 92.8 | 99.6 | GpH7-A5/GpH7-B3 variant Y296_18N/GpL16-k0 (antibody, human IgG1, kappa, heterodimerized IgG1, one H chain mutated; also called He Ab; copies: 1 + 1 + 2) heavy 1: not shown heavy 2: not shown light: DIVMTQSPLSLPVTPGEPASISCQASESLVHSNRNTYLHWYLQKPGQSPQLLIYKVSNRFSGVPDRFSGSGSGTDFTLKISRVEAEDVGVYYCSQNTHVPPTFGQGTKVEIERTVAAPSVFIFPPSDEQLKSGTASVVCLLNNFYPREAKVQWKVDNALQSGNSQESVTEQDSKDSTYSLSSTLTLSKADYEKHKVYACEVTHQGLSSPVTKSFNRGEC
10 | 106 | 88.1 | 104 | 90.5 | 92.9 | GpH7-A5/GpH7-B3 variant Y300_02A/GpL16-k0 (antibody, human IgG1, kappa, heterodimerized IgG1, one H chain mutated; also called He Ab; copies: 1 + 1 + 2) heavy 1: not shown heavy 2: not shown light: DIVMTQSPLSLPVTPGEPASISCQASESLVHSNRNTYLHWYLQKPGQSPQLLIYKVSNRFSGVPDRFSGSGSGTDFTLKISRVEAEDVGVYYCSQNTHVPPTFGQGTKVEIERTVAAPSVFIFPPSDEQLKSGTASVVCLLNNFYPREAKVQWKVDNALQSGNSQESVTEQDSKDSTYSLSSTLTLSKADYEKHKVYACEVTHQGLSSPVTKSFNRGEC
11 | 110 | 88.6 | 82.6 | 63.2 | 66.6 | GpH7-A5/GpH7-B3 variant Y300_01G/GpL16-k0 (antibody, human IgG1, kappa, heterodimerized IgG1, one H chain mutated; also called He Ab; copies: 1 + 1 + 2) heavy 1: not shown heavy 2: not shown light: DIVMTQSPLSLPVTPGEPASISCQASESLVHSNRNTYLHWYLQKPGQSPQLLIYKVSNRFSGVPDRFSGSGSGTDFTLKISRVEAEDVGVYYCSQNTHVPPTFGQGTKVEIERTVAAPSVFIFPPSDEQLKSGTASVVCLLNNFYPREAKVQWKVDNALQSGNSQESVTEQDSKDSTYSLSSTLTLSKADYEKHKVYACEVTHQGLSSPVTKSFNRGEC
12 | 108 | 71.4 | 94.3 | 90.5 | 97.9 | GpH7-A5/GpH7-B3 variant Y296_19Q/GpL16-k0 (antibody, human IgG1, kappa, heterodimerized IgG1, one H chain mutated; also called He Ab; copies: 1 + 1 + 2) heavy 1: not shown heavy 2: not shown light: DIVMTQSPLSLPVTPGEPASISCQASESLVHSNRNTYLHWYLQKPGQSPQLLIYKVSNRFSGVPDRFSGSGSGTDFTLKISRVEAEDVGVYYCSQNTHVPPTFGQGTKVEIERTVAAPSVFIFPPSDEQLKSGTASVVCLLNNFYPREAKVQWKVDNALQSGNSQESVTEQDSKDSTYSLSSTLTLSKADYEKHKVYACEVTHQGLSSPVTKSFNRGEC
13 | 107 | 127 | 95.4 | 105 | 105 | GpH7-A5/GpH7-B3 variant Y296_20W/GpL16-k0 (antibody, human IgG1, kappa, heterodimerized IgG1, one H chain mutated; also called He Ab; copies: 1 + 1 + 2) heavy 1: not shown heavy 2: not shown light: DIVMTQSPLSLPVTPGEPASISCQASESLVHSNRNTYLHWYLQKPGQSPQLLIYKVSNRFSGVPDRFSGSGSGTDFTLKISRVEAEDVGVYYCSQNTHVPPTFGQGTKVEIERTVAAPSVFIFPPSDEQLKSGTASVVCLLNNFYPREAKVQWKVDNALQSGNSQESVTEQDSKDSTYSLSSTLTLSKADYEKHKVYACEVTHQGLSSPVTKSFNRGEC
14 | 106 | 106 | 116 | 110 | 105 | GpH7-A5/GpH7-B3 variant Y300_06M/GpL16-k0 (antibody, human IgG1, kappa, heterodimerized IgG1, one H chain mutated; also called He Ab; copies: 1 + 1 + 2) heavy 1: not shown heavy 2: not shown light: DIVMTQSPLSLPVTPGEPASISCQASESLVHSNRNTYLHWYLQKPGQSPQLLIYKVSNRFSGVPDRFSGSGSGTDFTLKISRVEAEDVGVYYCSQNTHVPPTFGQGTKVEIERTVAAPSVFIFPPSDEQLKSGTASVVCLLNNFYPREAKVQWKVDNALQSGNSQESVTEQDSKDSTYSLSSTLTLSKADYEKHKVYACEVTHQGLSSPVTKSFNRGEC
15 | 110 | 83.8 | 109 | 96.5 | 96.8 | GpH7-A5/GpH7-B3 variant Y300_03V/GpL16-k0 (antibody, human IgG1, kappa, heterodimerized IgG1, one H chain mutated; also called He Ab; copies: 1 + 1 + 2) heavy 1: not shown heavy 2: not shown light: DIVMTQSPLSLPVTPGEPASISCQASESLVHSNRNTYLHWYLQKPGQSPQLLIYKVSNRFSGVPDRFSGSGSGTDFTLKISRVEAEDVGVYYCSQNTHVPPTFGQGTKVEIERTVAAPSVFIFPPSDEQLKSGTASVVCLLNNFYPREAKVQWKVDNALQSGNSQESVTEQDSKDSTYSLSSTLTLSKADYEKHKVYACEVTHQGLSSPVTKSFNRGEC
